Measurements: US20150010525A1, “Catalytic Tagging System to Study Macro-Molecular Interactions Using Engineered Ubiquitin Ligase and Ubiquitin-Like Proteins to Facilitate Substrate Identification” (THE REGENTS OF THE UNIVERSITY OF CALIFORNIA, priority 2012, published 2015)

Columns and labels:
[1] = system: HeLa cells; test: Cell viability by CellTiter-Glo after STS treatment; format: cell-based; settings: 24 hours after transfection, STS 2 hours
Method: FIG. 13 illustrates functional studies of PGAM5 in cells. (A) PGAM5(Δ24) binds XIAP and cIAP1 in vivo. On the left, HEK293 cells were cotransfected with Flag-cIAP1 and PGAM5(FL)-Myc or PGAM5(Δ24)-Myc. Total cell lysates were analyzed by immune-blotting with anti-Flag and anti-Myc antibodies (bottom two panels). Anti-Myc immune-precipitates (IP) were subjected to immunoblot analysis using anti-Myc and anti-Flag antibodies (top two panels). On the right, PGAM5(Δ24)-Myc was transiently expressed in HEK293 cells. 36 hours after transfection, cells were lysed and subjected for Immuno-precipitation with either anti-Myc antibody or an isotype control antibody (mouse IgG). Proteins in the whole cell lysate (bottom three panels) and proteins that bind to the antibody conjugated sepharose beads (top three panels) were assayed with immunoblotting. […] 24 hours after transfection, cell viability was measured by Annexin V staining. […] Error bars represent SEM calculated from triplicate experiments. […] Cell viability is then immediately measured by CellTiter-Glo luminescent assay. […] PGAM5 levels are analyzed with anti-Myc immune-blotting before STS treatment. Error bars represent SEM calculated from triplicate samples.
HeLa cells were plated in 96 well plates and transfected with either empty vector or the PGAM5 construct. […] Luminescent signals were read using a SpectraMax (Molecular Devices) plate reader.

[2] = target: T1, XIAP (Homo sapiens, UniProt P61081+P98170); test: SILAC mass spectrometry screen for XIAP substrates with NEDDylator^XIAP in apoptotic Jurkat cell lysate; format: biochemical; settings: Heavy lysate with Ubc12
T1 construct: The N-terminus (residues 1-434) of XIAP was then fused via a flexible Gly-Gly-Ser-Gly linker to the NEDD8 E2, Ubc12; GST (N, cleaved yes); made in house; host or cells: E. coli BL21 (DE3)
Method: Jurkat cells were grown in media containing either light or heavy isotopes of lysine and arginine and induced to undergo apoptosis with STS. Light cell extracts were incubated with the respective catalytic tagging system for each of the two IAPs and the heavy extracts labeled only with the wild-type NEDD8 E2, Ubc12. 64 mg regular L-Lys and 83.6 mg L-Arg.HCl were added to 1 liter RPMI-1640 minus L-Lys and L-Arg (Thermo/Pierce), 10% fetal bovine serum (FBS) to generate “Light” medium. 100 mg ^13C6^15N2 L-Lys.2HCl and 86 mg ^13C6 L-Arg.HCl (Cambridge Isotope) were added to the same amount of medium to generate the “Heavy” medium. Jurkat cells were cultured separately in “Light” or “Heavy” medium for 7 days to allow for thorough isotope incorporation. For IAP substrate identification, 400 million cells were treated with 2 μM STS for 4 hours, harvested, lysed in M-PER mammalian protein extraction buffer (Thermo/Pierce) in the presence of protease inhibitors (100× ProteoBlock cocktail, Fermentas) and mixed with cell lysate prepared from 400 million untreated cells. The NEDDylated proteins were isolated under denaturing conditions via the HB-NEDD8 tag using a tandem affinity pull down procedure (Tagwerker et al., Mol Cell Proteomics 5:737-748 (2006)) (FIG. 11). Purified NEDDylated proteins were trypsinized and analyzed with tandem mass spectrometry (LC-MS/MS).
For SILAC experiments, Jurkat cells were cultured separately in “Light” (supplemented with regular Lys and Arg) or “Heavy” (supplemented with ^13C6^15N2 Lys and ^13C6 Arg) medium for 7 days to allow for thorough isotope incorporation. Apoptotic “Light” and “Heavy” cell extracts were prepared individually. The lysates were cleared by spinning and then diluted in 50 mM HEPES pH 7.4, 150 mM NaCl to 5 mg/ml and supplemented with 5 mM ATP, 10 mM MgCl2. Endogenous NEDD8 E1 is cell lysate was used to catalyze the reaction. HB-NEDD8 was added to both lysate at mass ratio 1:500; the catalytic tagging system was added to the “Light” lysate at mass ratio 1:1000. Equal molar of Ubc12 was added to the “Heavy” lysate. […] NEDDylated proteins were separated by one-dimensional SDS-PAGE, and trypsinized for LC-MS/MS analysis.
For liquid chromatography—Tandem mass spectrometry (LC-MS/MS) analysis, the tryptic peptides were first desalted and concentrated with a C18 Ziptip (Millipore). LC-MS/MS was carried out by reverse phase LC interfaced with a LTQ-Orbitrap (ThermoFisher Scientific) hybrid mass spectrometer. A nanoflow HPLC (NanoAcquity UPLC system, Waters Corporation) was equipped with a trap column (180 μm×20 mm, 5 μm SymmetryC18, from Waters) and an analytical column (100 μm×100 mm, 1.7 μm BEH130C18, from Waters). […]

T1 sequence (P98170+P61081 fused): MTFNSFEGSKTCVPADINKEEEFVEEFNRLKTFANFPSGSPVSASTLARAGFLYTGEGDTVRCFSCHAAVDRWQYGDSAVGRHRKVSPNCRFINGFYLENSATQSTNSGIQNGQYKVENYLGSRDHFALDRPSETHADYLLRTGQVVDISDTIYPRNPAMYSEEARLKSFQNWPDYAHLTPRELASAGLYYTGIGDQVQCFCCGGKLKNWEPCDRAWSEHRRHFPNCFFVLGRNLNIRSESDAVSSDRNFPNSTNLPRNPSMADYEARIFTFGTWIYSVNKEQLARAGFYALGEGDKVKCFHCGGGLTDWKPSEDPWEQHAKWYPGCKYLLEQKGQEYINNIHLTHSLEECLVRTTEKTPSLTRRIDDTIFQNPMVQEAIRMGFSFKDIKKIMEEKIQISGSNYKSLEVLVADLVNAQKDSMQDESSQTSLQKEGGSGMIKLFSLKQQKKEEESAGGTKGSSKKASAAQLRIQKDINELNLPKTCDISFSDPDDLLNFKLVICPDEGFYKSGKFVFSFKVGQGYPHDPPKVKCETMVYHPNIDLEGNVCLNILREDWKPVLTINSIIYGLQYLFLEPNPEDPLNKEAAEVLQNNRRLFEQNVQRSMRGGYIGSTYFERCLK

L/H (Light/Heavy ratio) [2]: 5.88
B1: Serine/threonine-protein phosphatase PGAM5, mitochondrial: phosphoglycerate mutase family member 5, dimeric protein phosphatase (protein, UniProt Q96HS1 1-289, looked up)
chain: MAFRQALQLAACGLAGGSAAVLFSAVAVGKPRAGGDAEPRPAEPPAWAGGARPGPGVWDPNWDRREPLSLINVRKRNVESGEEELASKLDHYKAKATRHIFLIRHSQYHVDGSLEKDRTLTPLGREQAELTGLRLASLGLKFNKIVHSSMTRAIETTDIISRHLPGVCKVSTDLLREGAPIEPDPPVSHWKPEAVQYYEDGARIEAAFRNYIHRADARQEEDSYEIFICHANVIRYIVCRALQFPPEGWLRLSLNNGSITHLVIRPNGRVALRTLGDTGFMPPDKITRS
modifications: full-length
notes: phosphoglycerate mutase family member 5, dimeric protein phosphatase
sensitization to apoptosis inducer STS [1]: sensitized cells to the apoptosis inducer STS
